Biological target: T1, His6-Ddx21_(motif2) (human, UniProt Q9NR30 1-783, motif2 (aa440–444) -RTIIF- to -RTAIA-)
T1 construct: Site-directed mutagenesis of pRSET-A-DDX21; also called mut2; (aa440–444: motif2); source: E. coli DH5α, purified (SP-Sepharose, Ni-NTA)
T1 sequence (looked up): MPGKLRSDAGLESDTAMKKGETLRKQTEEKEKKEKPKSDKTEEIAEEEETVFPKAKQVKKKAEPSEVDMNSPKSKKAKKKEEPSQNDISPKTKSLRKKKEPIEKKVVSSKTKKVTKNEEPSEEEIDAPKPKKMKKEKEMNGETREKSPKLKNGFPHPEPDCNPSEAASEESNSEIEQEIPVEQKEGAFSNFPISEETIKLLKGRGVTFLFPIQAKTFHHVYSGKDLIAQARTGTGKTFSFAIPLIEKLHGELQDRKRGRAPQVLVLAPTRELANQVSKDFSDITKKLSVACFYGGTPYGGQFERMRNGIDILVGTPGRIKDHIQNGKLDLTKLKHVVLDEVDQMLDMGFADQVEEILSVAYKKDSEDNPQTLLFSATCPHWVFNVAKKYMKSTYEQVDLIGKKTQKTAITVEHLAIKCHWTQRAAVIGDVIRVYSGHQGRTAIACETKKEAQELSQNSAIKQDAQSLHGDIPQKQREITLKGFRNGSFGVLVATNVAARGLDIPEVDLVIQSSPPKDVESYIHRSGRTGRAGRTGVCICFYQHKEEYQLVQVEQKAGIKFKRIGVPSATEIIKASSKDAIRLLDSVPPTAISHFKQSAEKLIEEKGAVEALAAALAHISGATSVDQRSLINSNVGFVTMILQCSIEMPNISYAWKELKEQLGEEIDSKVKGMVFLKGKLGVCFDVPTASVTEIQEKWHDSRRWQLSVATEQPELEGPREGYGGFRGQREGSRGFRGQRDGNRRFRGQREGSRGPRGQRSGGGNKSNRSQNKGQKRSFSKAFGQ
Assay: pull-down; 300 ng PP1 and 200 ng His6-Ddx21 in 25 mM Tris pH 7.5, 5% glycerol, 150 mM NaCl, 0.5% Igepal630, 10 mM imidazole, 4°C; Ni-NTA beads; wash 450 mM NaCl, 0.5% Tween-20 (γ: 500 mM NaCl, 0.75% Tween-20); western blot
Details: both partners purified

B1: PP1β, bacterially expressed and purified (enzyme, human, UniProt P62140 1-327, looked up)
chain: MADGELNVDSLITRLLEVRGCRPGKIVQMTEAEVRGLCIKSREIFLSQPILLELEAPLKICGDIHGQYTDLLRLFEYGGFPPEANYLFLGDYVDRGKQSLETICLLLAYKIKYPENFFLLRGNHECASINRIYGFYDECKRRFNIKLWKTFTDCFNCLPIAAIVDEKIFCCHGGLSPDLQSMEQIRRIMRPTDVPDTGLLCDLLWSDPDKDVQGWGENDRGVSFTFGADVVSKFLNRHDLDLICRAHQVVEDGYEFFAKRQLVTLFSAPNYCGEFDNAGGMMSVDETLMCSFQILKPSEKKAKYQYGGLNSGRPVTPPRTANPPKKR
notes: Protein phosphatase 1 catalytic subunit, isoform β, human; also called protein phosphatase 1 beta
- binding result: binds
